B1: Hairpin Ribozyme (parent)
chain: GUCCUCUUUCACGUGCGCGUGAAAGAGAGAAGUGAACCAGAGAAACACACGUUGUGGUAUAUUACCUGGUA

Variants of: B1
Assay: self-cleavage, relative activity (ratio to wild type); higher = more cleavage; co-transcriptional

Variant	self-cleavage
C10U U58A	0.533
C10A U63C	0.207
C10A U63G	0.152
C10G G42A	0.185
C10U U14A	0.811
C10U C46G	0.0871
C10U C46A	0.15
C10U A36U	0.487
C10U G40C	0.138
C10U G40U	0.203
C10A G69U	0.14
C10U A64U	0.134
C10U A64G	0.606
C10U A11U	0.577
C10G A24U	0.468
C10G A24G	0.63
C10G G29U	0.136
C10U G42A	0.195
C10A G19C	0.509
C10A G19A	0.761
C10U C37G	0.299

Variant	self-cleavage
C10U C37A	0.364
C10U C50G	0.195
C10A C65A	0.556
C10A C65G	0.388
C10A G54U	0.426
C10A G54A	0.338
C10U G15C	0.825
C10U G15A	0.722
C10U G15U	0.843
C10A U58G	0.592
C10G C48U	0.168
C10A G42U	0.268
C10A G42C	0.235
C10G C18U	0.842
C10A U20C	0.732
C10U U67C	0.206
C10U C12G	0.612
C10U A26G	0.722
C10A U33G	0.114
C10U G68U	0.189
C10U G56C	0.25

Variant	self-cleavage
C10U G56A	0.181
C10U G56U	0.162
C10G A22G	0.649
C10G G68C	0.199
C10G U58G	0.441
C10A U70A	0.498
C10G A31U	0.084
C10U A45U	0.111
C10U A45G	0.0999
C10U A45C	0.159
C10G U52C	0.536
C10G U52A	0.705
C10U C66A	0.183
C10U A30G	0.135
C10G C16G	0.559
C10G A49C	0.198
C10G A49U	0.21
C10U C65G	0.284
C10U G54C	0.444
C10U U52A	0.761
C10G A71U	0.589

Variant	self-cleavage
C10G A71G	0.705
C10A G17C	0.489
C10A G40A	0.219
C10A G40U	0.141
C10G A41G	0.734
C10G A41C	0.777
C10G A41U	1.09
C10U A28C	0.305
C10U U60A	0.67
C10A U52A	0.783
C10A U52C	0.81
C10A G32A	0.161
C10A C18U	0.809
C10G G27U	0.195
C10U G19U	0.672
C10A G57U	0.221
C10A G57C	0.174
C10U C16U	0.871
C10U A71C	1.23
C10U A71U	0.706
C10U G25U	0.509
